Experiment [1] concerns the target T1, CoV-HKU1 Spike ectodomain (HKU1-CoV, UniProt Q0ZME7 14-1276). Also: test concentration or dose not given here.
T1 chain: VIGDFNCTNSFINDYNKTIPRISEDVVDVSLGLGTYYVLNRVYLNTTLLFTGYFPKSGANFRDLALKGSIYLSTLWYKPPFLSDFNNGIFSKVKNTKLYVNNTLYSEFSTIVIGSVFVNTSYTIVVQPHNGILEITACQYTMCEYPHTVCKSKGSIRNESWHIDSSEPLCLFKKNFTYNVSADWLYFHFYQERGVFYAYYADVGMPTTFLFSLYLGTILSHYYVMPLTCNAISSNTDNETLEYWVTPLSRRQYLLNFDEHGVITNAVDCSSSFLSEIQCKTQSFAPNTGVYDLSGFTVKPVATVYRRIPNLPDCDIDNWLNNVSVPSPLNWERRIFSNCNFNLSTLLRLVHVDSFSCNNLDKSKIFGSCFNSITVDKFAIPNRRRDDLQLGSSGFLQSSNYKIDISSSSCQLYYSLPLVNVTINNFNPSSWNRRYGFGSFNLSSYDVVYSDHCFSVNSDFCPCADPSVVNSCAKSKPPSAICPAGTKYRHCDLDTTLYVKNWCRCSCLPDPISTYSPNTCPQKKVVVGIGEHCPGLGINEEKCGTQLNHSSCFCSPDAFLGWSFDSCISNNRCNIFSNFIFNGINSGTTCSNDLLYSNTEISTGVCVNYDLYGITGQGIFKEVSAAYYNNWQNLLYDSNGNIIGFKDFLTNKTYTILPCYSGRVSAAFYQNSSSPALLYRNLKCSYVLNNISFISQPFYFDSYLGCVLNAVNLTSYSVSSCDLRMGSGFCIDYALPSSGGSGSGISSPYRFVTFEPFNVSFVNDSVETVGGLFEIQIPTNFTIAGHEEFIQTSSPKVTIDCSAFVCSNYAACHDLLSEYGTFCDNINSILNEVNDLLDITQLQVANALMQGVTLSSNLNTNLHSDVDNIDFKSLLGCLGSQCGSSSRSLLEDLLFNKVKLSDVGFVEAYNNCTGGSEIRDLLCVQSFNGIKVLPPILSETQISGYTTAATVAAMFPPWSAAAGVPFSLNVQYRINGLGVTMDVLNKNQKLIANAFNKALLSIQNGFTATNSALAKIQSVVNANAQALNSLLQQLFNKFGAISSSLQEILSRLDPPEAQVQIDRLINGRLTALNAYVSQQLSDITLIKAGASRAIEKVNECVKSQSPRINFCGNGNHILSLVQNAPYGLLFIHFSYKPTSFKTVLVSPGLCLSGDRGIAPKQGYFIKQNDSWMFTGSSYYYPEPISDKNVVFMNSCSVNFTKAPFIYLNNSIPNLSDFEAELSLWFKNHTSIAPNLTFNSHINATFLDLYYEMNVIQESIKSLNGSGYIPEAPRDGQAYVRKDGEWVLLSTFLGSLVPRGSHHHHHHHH
Briefly: ELISA, coated antigen. (In general: ELISA stands for enzyme-linked immunosorbent assay.)

In experiment [2] the target is SARS-CoV-2 spike, Omicron BA.1 variant, on virus (SARS-CoV-2). Briefly: cell-based or functional assay.
For experiment [3] the target is unchanged. In words: cell-based or functional assay. This is another data set of the same source.
For experiment [4], the target named is SARS-CoV-2 spike, Delta variant (B.1.617.2), on virus or pseudotyped particles (SARS-CoV-2). In words: cell-based or functional assay.
Experiment [5] has as its target SARS-CoV-2 spike, Beta variant (B.1.351), on virus or pseudotyped particles (SARS-CoV-2). Briefly: cell-based or functional assay.
Experiment [6] addresses T2, CoV-OC43 Spike ectodomain (OC43-CoV, UniProt P36334 14-1263).
T2 chain: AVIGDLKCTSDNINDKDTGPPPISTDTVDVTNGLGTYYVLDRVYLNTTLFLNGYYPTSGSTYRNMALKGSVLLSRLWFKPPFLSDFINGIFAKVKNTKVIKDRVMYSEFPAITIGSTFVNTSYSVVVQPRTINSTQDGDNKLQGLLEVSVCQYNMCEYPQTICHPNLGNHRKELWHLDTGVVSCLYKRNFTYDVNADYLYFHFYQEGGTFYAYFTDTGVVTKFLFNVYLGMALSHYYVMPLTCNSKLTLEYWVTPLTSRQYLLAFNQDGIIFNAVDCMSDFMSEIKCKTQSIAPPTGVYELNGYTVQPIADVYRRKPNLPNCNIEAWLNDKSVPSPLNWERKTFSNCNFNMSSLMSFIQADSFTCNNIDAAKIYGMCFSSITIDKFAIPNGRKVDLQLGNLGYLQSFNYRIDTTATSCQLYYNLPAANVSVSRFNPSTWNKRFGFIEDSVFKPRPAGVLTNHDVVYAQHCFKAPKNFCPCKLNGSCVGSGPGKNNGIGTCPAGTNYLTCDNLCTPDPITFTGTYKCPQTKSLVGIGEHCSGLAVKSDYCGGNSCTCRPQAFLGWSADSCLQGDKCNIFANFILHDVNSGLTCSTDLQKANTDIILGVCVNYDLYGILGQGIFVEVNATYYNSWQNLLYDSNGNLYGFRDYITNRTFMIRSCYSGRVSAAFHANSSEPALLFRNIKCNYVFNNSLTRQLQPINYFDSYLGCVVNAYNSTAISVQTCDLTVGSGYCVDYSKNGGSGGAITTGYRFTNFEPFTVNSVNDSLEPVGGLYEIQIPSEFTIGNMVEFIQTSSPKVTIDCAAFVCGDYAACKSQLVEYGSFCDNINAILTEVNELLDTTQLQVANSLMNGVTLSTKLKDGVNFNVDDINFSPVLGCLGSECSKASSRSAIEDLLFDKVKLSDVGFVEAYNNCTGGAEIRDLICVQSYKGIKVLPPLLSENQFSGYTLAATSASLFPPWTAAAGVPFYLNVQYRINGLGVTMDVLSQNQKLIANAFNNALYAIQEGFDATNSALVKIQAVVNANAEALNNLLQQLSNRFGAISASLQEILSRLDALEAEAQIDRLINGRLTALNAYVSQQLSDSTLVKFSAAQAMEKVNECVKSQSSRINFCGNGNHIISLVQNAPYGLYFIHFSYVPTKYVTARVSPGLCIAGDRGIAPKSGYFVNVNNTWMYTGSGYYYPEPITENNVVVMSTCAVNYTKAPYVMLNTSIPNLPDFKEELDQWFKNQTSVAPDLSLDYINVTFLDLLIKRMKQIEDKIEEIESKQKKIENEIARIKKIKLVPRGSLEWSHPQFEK
Briefly: ELISA, coated spike ectodomain.

Numbering of substitutions follows the chain as printed. Several values for one entry are separate records, joined by “and”; a condition that tells them apart may be missing. Identical values can stand only once.

B1: Cv2.1353 (recombinant human IgG1) (antibody, V domains shown)
VH: EVQLVESGGGLVQPGGSLRLSCAASGVTVSSNYMNWVRQAPGKGLEWVSVIYSGGSTFYADSVKGRFIISRDNSKNTLYLQMNSLKTEDTAVYYCARDLGPMGFDIWGQGTMVTVSS
VL: DIQMTQSPSFLSASVGDRVTITCRASQGISSYLAWYQQKPGKAPKLLIYAASTLQSGVPSRFSGSGSGTEFTLTISSLQPEDFATYYCQQLNSDPPVTFGPGTKVDIKR
B1: the “ELISA OD” value in experiment [1] is 0.1 OD.

B2: Cv2.3194 (recombinant human IgG1) (antibody, V domains shown)
VH: EVQLVESGGGLIQPGGSLRLSCAASGITVTSNYMSWVRQAPGKGLEWVSVIYPGGSTFYADSVKGRFTISRDNSKNTLYLQMNSLRAEDTAVYYCARDLVVYGMDVWGQGTTVTVSS
VL: EIVLTQSPGTLSLSPGERATLSCRASQSVSSSYLAWYQQKPGQAPRLLIYGASSRATGIPGRFSGSGSGTDFTLTISRLEPEDFAIYYCQQGVTFGGGTKVEIKR
Regarding B2, the “S-Fuse IC50” value in experiment [2] was determined as 0.0242 µg/mL. In experiment [3], the “S-Fuse neutralization IC50” value worked out at 0.0242 µg/mL and the “S-Fuse neutralization IC90” value amounted to 0.709 µg/mL. For the same molecule, in experiment [4], the “Pseudoneutralization IC50” value is 0.0544 µg/mL, the “Pseudoneutralization IC90” value stood at 0.115 µg/mL, the “S-Fuse neutralization IC50” value stood at 0.0066 µg/mL and the “S-Fuse neutralization IC90” value worked out at 0.0547 µg/mL. Further, in experiment [5], the “Pseudoneutralization IC50” value is 0.0343 µg/mL, the “Pseudoneutralization IC90” value was determined as 0.119 µg/mL, the “S-Fuse neutralization IC50” value was determined as 0.0052 µg/mL and the “S-Fuse neutralization IC90” value is 0.02 µg/mL. Moreover, the “ELISA OD” value in experiment [1] was 0.1 OD.

B3: Cv2.5213 (recombinant human IgG1) (antibody, V domains shown)
VH: B2 VH with I27F, T30S, V50L, P53S, F58Y, V100N, V101Y, T111A
VL: B1 VL with F10S, E70D, N92D, D94Y, P95S, V97F
Take B3: in experiment [1], the “ELISA OD” value worked out at 0.1 OD.

B4: Cv2.3235 (recombinant human IgG1) (antibody, V domains shown)
VH: B2 VH with I27F, T30S, S31R, P53S, L99G, V100D, V101Y
VL: DIQMTQSPSFLSASVGDRVTITCRASQGISSFLAWYQQKPGKAPKLLIYGASTLQSGVTSRFSGSGSGTEFTLTISSLQPEDFATYYCQRLDSYPPITFGQGTRLEIKR
As for B4, in experiment [6], the binding result is listed as “no binding”. The “ELISA OD” value in experiment [1] turned out to be 0.2 OD.

B5: Cv2.1169 (recombinant human IgG1) (antibody)
heavy: QVQLVQSGPEVKKPGTSVKVSCKASGFTFTTSAVQWVRQARGQRLEWIGWIVVGSGNTNYAQKFQERVTITRDMSTTTAYMELSSLRSEDTAVYYCAAPYCSGGTCLDGFDIWGQGTMVTVSSASTKGPSVFPLAPSSKSTSGGTAALGCLVKDYFPEPVTVSWNSGALTSGVHTFPAVLQSSGLYSLSSVVTVPSSSLGTQTYICNVNHKPSNTKVDKKVEPKSCDKTHTCPPCPAPELLGGPSVFLFPPKPKDTLMISRTPEVTCVVVDVSHEDPEVKFNWYVDGVEVHNAKTKPREEQYNSTYRVVSVLTVLHQDWLNGKEYKCKVSNKALPAPIEKTISKAKQPREPQVYTLPPSRDELTKNQVSLTCLVKGFYPSDIAVEWESNGQPENNYKTTPPVLDSDGSFFLYSKLTVDKSRWQQGNVFSCSVMHEALHNHYTQKSLSLSPGK
light: not shown
notes: also called Cv2.1169 IgG
Regarding B5, in experiment [2], the “S-Fuse IC50” value is 0.253 µg/mL and 0.212 µg/mL; the “neutralization IC50” value was around 0.25 µg/mL. Moreover, in experiment [6], the binding result is listed as “no binding”. Moreover, in experiment [3], the “S-Fuse neutralization IC50” value was determined as 0.265 µg/mL and the “S-Fuse neutralization IC90” value amounted to 7.59 µg/mL. In experiment [4], the “Pseudoneutralization IC50” value was 0.008 µg/mL, the “Pseudoneutralization IC90” value worked out at 0.0341 µg/mL, the “S-Fuse neutralization IC50” value amounted to 0.0021 µg/mL and the “S-Fuse neutralization IC90” value was found to be 0.0064 µg/mL. Further, in experiment [5], the “Pseudoneutralization IC50” value is 0.0142 µg/mL, the “Pseudoneutralization IC90” value stood at 0.0342 µg/mL, the “S-Fuse neutralization IC50” value amounted to 0.0023 µg/mL and the “S-Fuse neutralization IC90” value was 0.0072 µg/mL. For the same molecule, the “ELISA OD” value in experiment [1] came to 0.1 OD.

For the origin of these results see US20240336672A1 (INSTITUT PASTEUR, published 2024).
